Data set [1] in a line: R1 and R2 relaxivity with a relaxometer. The settings on record: 1.4 T. The format is physicochemical. The procedure: To ensure that the fusion protein is applicable as a MRI contrast agent, the Gd^3+ binding property and R1/R2 relaxivity of the fusion protein were tested using well-known methods.
For data set [2] the following is noted: cited from earlier work.
Data set [3] concerns diabetic mice. Description: Blood glucose and glucose-dependent insulin secretion after co-administration with glucose (Example 16). The settings on record: 25 nmole/kg agent with 15 mmole/kg glucose i.p. The format is in vivo. The procedure: FIG. 12 is a pair of graphs showing the changes in Δ blood glucose (Upper panel) and Δ insulin (bottom panel) in a group of 8 diabetic mice at different time points after injection of 15 mmole/kg of glucose with 25 nmole/kg of different agents.
The effects of the developed agent on blood glucose lowering and stimulating of the glucose-dependent insulin secretion in diabetic mice were also examined. The animals first fasted for 6 hours. The protein agent (25 nmole/kg) and glucose (15 mmole/kg) were co-administrated via intraperitoneal injection with a group of eight diabetic mice. The blood glucose and insulin levels were measured at different time points. As controls, the same dose of glucose was administrated alone and co-administrated with the parental protein calbindin in separate groups of diabetic mice.

The test system of data set [4] is Diabetic mice (BKS.Cg-Lepr^db/db). Description: Blood glucose lowering in fed diabetic mice (Example 15). The format is in vivo. The procedure:
The animals were re-feed for 25 minutes 5 hours after drug administration and 35 minutes before the last time point of blood sample collection. The A Blood Glucose (mg/dl) was determined by calculating the difference between the measured blood glucose levels at any given time point and the initial blood glucose levels. The initial blood glucose levels were measured after feeding for 20 min and before the drug administration (time zero). The error bars represent standard deviations of measurements of eight mice.
The developed protein agent was tested to determine whether it had the in vivo capability of lowering blood glucose in diabetic subjects. Diabetic mice (BKS.Cg-Lepr^db/db, The Jackson Laboratory) were used as test subjects. A group of six animals first fasted for 6 hours. After fasting, the animals were fed for 30 minutes. The protein agent was administered after feeding by intraperitoneal injection at a dose of 25 nmole/kg. The animals were fed again for 30 mins, 5 hrs after agent administration. Blood samples were taken at different time points after administration of the agent. Glucose concentration in the blood samples was measured using a commercially available kit.

Data set [5] deals with CHO cells. Briefly: Immunostaining binding analysis, CHO cells (no GLP-1R). The class given is cell-based. Particulars: Cal.GLP 10 μM, calbindin D9k 50 μM, 37° C., 30 mins. The procedure:
(§1) FIG. 10 is a series of digital images showing immunofluorescence staining of CHO or RINm5F cells that were treated by calbindin (50 μM) and Cal.GLP (10 μM). The cells were extensively washed after 30 min treatments under 37° C. in microscopic chamber slides and subsequently fixed. The cells were stained with the calbindin-specific antibody and visualized under confocal microscopy. The light shading represents antibody staining.
(§2) To examine whether the developed protein indeed interacted with GLP-1R, the binding of the fusion protein with two cell lines, RINm5F and CHO cells was examined. It is well known that GLP-1R is expressed in RINm5F but not in CHO cells. Both RINm5F and CHO cells were incubated with fusion protein Cal.GLP (10 μM) or calbindin D9k (50 μM) at 37° C. for 30 mins. After extensive washing, the cells were fixed and subjected to immunostaining analyses using a rabbit polyclonal antibody against parental protein calbindin D9k. […] Similar binding analyses were carried out with RINm5F cells and a […] (αTC1).

For data set [6], the system named is RINm5F cells. Briefly: Immunostaining binding analysis, RINm5F cells (GLP-1R expressed). The format is cell-based, rat. The settings on record: Cal.GLP 10 μM, calbindin D9k 50 μM, 37° C., 30 mins. The protocol: as §1, §2
For data set [7], the target named is T1, GLP-1 receptor (Rattus norvegicus, UniProt P32301).
T1 construct: It is well known that GLP-1R is expressed in RINm5F but not in CHO cells; endogenous in cells; host or cells: RINm5F rat insulinoma cells
T1 sequence (P32301 22-463): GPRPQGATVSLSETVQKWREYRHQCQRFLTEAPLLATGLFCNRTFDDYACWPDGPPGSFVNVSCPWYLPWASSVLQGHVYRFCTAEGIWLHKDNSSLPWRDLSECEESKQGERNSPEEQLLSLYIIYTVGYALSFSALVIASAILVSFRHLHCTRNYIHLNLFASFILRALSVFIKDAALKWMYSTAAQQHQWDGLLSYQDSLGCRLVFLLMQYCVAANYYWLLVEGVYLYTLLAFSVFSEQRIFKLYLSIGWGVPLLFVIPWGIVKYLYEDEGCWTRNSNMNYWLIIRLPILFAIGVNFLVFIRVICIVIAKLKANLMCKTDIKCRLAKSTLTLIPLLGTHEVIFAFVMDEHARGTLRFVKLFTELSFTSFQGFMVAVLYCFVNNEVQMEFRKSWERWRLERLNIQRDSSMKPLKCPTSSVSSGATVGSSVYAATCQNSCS
Description: Cell-based intracellular cAMP assay (Lance cAMP 384 kit) in RINm5F cells. The settings on record: concentration around 200 μM. In general terms: cAMP levels reflect the balance of adenylyl cyclase and phosphodiesterase activity.
Description: The cells were harvested 30 minutes post treatments. Cell lysates were prepared from the harvested cells. The cAMP levels in the lysate were then measured and expressed as pmole values. The error bars represent standard deviations of four times of measurements.
A Lance cAMP 384® Kit (Perkin Elmer, Inc) was used to compare the incretin effects of fusion protein and PEGylated protein. Rat Insulinoma cells (RINm5F) were cultured with RPMI1640 with 10% FBS in 75 cm^2 cell culture flasks. Cells are harvested and washed three times with HBSS (Invitrogen Corp.) buffer. A series of 5 μl test protein and 5 μl cell suspension with 5000 cells in stimulation buffer (1×HBSS buffer with 5 mM HEPES, 0.1% BSA and 150 mM IBMX) and Alexa, biotin labeled cAMP antibodies were incubated at 37° C. for 15 mins in 384-well plate. […] A VICTOR^3 plated reader (PerkinElmer, Inc.) was used to detect the fluorescence signal at excitation 340 nm and emission 665 nm and 615 nm. The collected data was then analyzed with the equation of F=F665 nm/F615 nm. […]
The effects of the PEGylated proteins and unPEGylated protein in stimulating the cAMP production were examined in rat insulinoma β-cells RINm5F. The cAMP production was analyzed using a commercial cAMP kit (PerkinElmer).

The conditions of data set [8]: in vivo.

Like-named read-outs stand apart in the source and are kept apart here.

Molecule `O=C(O)CN(CCN(CC(=O)O)CC(=O)O)CCN(CC(=O)O)CC(=O)O` (Gd complex, metal not drawn) [DTPA, reference compound] came in with an R1 in data set [1] of 3.8 mM^−1S^−1.
Regarding `CC[C@H](C)[C@H](NC(=O)[C@H](Cc1ccccc1)NC(=O)[C@H](CCC(=O)O)NC(=O)[C@H](CCCCN)NC(=O)[C@H](C)NC(=O)[C@H](C)NC(=O)[C@H](CCC(N)=O)NC(=O)CNC(=O)[C@H](CCC(=O)O)NC(=O)[C@H](CC(C)C)NC(=O)[C@H](Cc1ccc(O)cc1)NC(=O)[C@H](CO)NC(=O)[C@H](CO)NC(=O)[C@@H](NC(=O)[C@H](CC(=O)O)NC(=O)[C@H](CO)NC(=O)[C@@H](NC(=O)[C@H](Cc1ccccc1)NC(=O)[C@@H](NC(=O)CNC(=O)[C@H](CCC(=O)O)NC(=O)[C@H](C)NC(=O)[C@@H](N)Cc1c[nH]cn1)[C@@H](C)O)[C@@H](C)O)C(C)C)C(=O)N[C@@H](C)C(=O)N[C@@H](Cc1c[nH]c2ccccc12)C(=O)N[C@@H](CC(C)C)C(=O)N[C@H](C(=O)N[C@@H](CCCCN)C(=O)NCC(=O)N[C@@H](CCCNC(=N)N)C(N)=O)C(C)C` [GLP-1 peptide], the circulation time entry in data set [2] (degradation by DPP-4) is recorded as “less than 2 minutes”.
As to `CCCCCCCCCCCCCCCC(=O)N[C@@H](CCC(=O)NCCCC[C@H](NC(=O)[C@H](C)NC(=O)[C@H](C)NC(=O)[C@H](CCC(N)=O)NC(=O)CNC(=O)[C@H](CCC(=O)O)NC(=O)[C@H](CC(C)C)NC(=O)[C@H](Cc1ccc(O)cc1)NC(=O)[C@H](CO)NC(=O)[C@H](CO)NC(=O)[C@@H](NC(=O)[C@H](CC(=O)O)NC(=O)[C@H](CO)NC(=O)[C@@H](NC(=O)[C@H](Cc1ccccc1)NC(=O)[C@@H](NC(=O)CNC(=O)[C@H](CCC(=O)O)NC(=O)[C@H](C)NC(=O)[C@@H](N)Cc1cnc[nH]1)[C@@H](C)O)[C@@H](C)O)C(C)C)C(=O)N[C@@H](CCC(=O)O)C(=O)N[C@@H](Cc1ccccc1)C(=O)N[C@H](C(=O)N[C@@H](C)C(=O)N[C@@H](Cc1c[nH]c2ccccc12)C(=O)N[C@@H](CC(C)C)C(=O)N[C@H](C(=O)N[C@@H](CCCNC(=N)N)C(=O)NCC(=O)N[C@@H](CCCNC(=N)N)C(=O)NCC(=O)O)C(C)C)[C@@H](C)CC)C(=O)O` [Liraglutide], the blood circulation time entry in data set [2] (in vivo) is recorded as “more than 10 hr”.
On to Exendin 4 [reference compound], for which the “time of immediate insulin increase and glucose decrease” value in data set [3] was at most 30 min. Further, the “drop of blood glucose levels” value in data set [4] (25 nmole/kg i.p., within 30 minutes) was “about 189 mg/dl”. Moreover, the “blood glucose levels after re-feed” value in data set [4] (6 hours post administration, one hour after re-feed) is given as “almost reached the same blood glucose levels before the drug treatments”.

B1: calbindin: parental host protein human Calbindin D9k, negative control; SEQ ID NO: 13 (protein)
chain: MSTKKSPEELKRIFEKYAAKEGDPDQLSKDELKLLIQAEFPSLLKGPNTLDDLFQELDKNGDGEVSFEEFQVLVKKISQ
modifications: human calbindin D9K
For the molecule B1, in data set [5], the “binding to CHO cells” value is listed as “did not bind to either cell”. For the same molecule, the “blood glucose lowering post glucose and drug administration” value in data set [3] is “did not”. Further, the R1 in data set [1] was found to be 6.58 mM^−1S^−1. For the same molecule, the “binding to RINm5F cells” value in data set [6] is listed as “did not bind to either cell”. Moreover, in data set [7], the “increase of intracellular cAMP level” value was “could not increase cell intracellular cAMP level”. The “change of blood glucose levels” value in data set [4] (control group, same dose (25 nmole/kg)) is listed as “decreased slightly”. For the same molecule, the blood circulation time entry in data set [8] is reported as “more than 24 hours”.

B2: Cal.GLP/Q26D: Q26D variant of the Cal.GLP fusion protein; SEQ ID NO: 18 (protein)
chain: MSTKKSPEELKRIFEKYAAKEGDPDDLSKDELKLLIQAEFPCLLKGPNTLDDLFQELDKNGHAEGTFTSDVSSYLEGQAAKEFIAWLVKGR
Molecule B2 registered an R1 in data set [1] of 20 mM^−1S^−1.

(Values after patent US8697648B2, “Protein agent for diabetes treatment and β cell imaging” (Georgia State University Research Foundation, Inc., priority 2009, dated 2014).)
